Experimental data: publication PMC11742915 (Nature Communications, 2025)

How the values were obtained:
IFNλR1 (Homo sapiens) = IFNλR1 (Homo sapiens) (UniProt Q8IU57); conditions: cited from earlier work
IFNλ3 = target: T1, IFNλ3 (UniProt Q8IZI9 34-196); experiment: MST
T1 chain: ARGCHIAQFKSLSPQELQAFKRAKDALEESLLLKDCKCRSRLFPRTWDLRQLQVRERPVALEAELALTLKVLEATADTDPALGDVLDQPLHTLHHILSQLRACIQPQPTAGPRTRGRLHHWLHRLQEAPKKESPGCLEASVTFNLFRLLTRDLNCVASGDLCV

IFNλ4 = target: T2, IFNλ4 (human, UniProt K9M1U5-1 22-179); experiment: MST
T2 chain: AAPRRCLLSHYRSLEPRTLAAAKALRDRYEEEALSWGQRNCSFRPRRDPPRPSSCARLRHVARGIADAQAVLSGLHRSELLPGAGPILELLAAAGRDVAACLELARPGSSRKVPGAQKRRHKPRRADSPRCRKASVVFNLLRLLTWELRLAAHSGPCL

IFNλR1 [1] = target: T3, IFNλR1 (UniProt Q8IU57 21-226, biotin (in SPR, MST and yeast staining); fluorescent dye NanoTemper NT-L020 (in MST)); experiment: cell-based or functional assay
IFNλR1 [2] = target: T3, IFNλR1; experiment: SPR; Biacore T200, 22 °C, equilibrium method; ~850 RU biotinylated IFNλR1 captured on a Biotin CAPture chip, IFNλ4 as analyte, nine points; 10 mM MES pH 5.6, 500 mM NaCl, 10% glycerol, 0.05% Tween20; 1:1 binding model; conditions: both partners purified

Molecule: IFNλ3 (from UniProt Q8IZI9)
- Kd (IFNλR1 (Homo sapiens)): 850 nM

B1: IFNλR1 (receptor)
chain: RPRLAPPQNVTLLSQNFSVYLTWLPGLGNPQDVTYFVAYQSSPTRRRWREVEECAGTKELLCSMMCLKKQDLYNKFKGRVRTVSPSSKSPWVESEYLDYLFEVEPAPPVLVLTQTEEILSANATYQLPPCMPPLDLKYEVAFWKEGAGNKTLFPVTPHGQPVQITLQPAASEHHCLSARTIYTFSVPKYSKFSKPTCFLLEVPEAN
modifications: biotin (in SPR, MST and yeast staining); fluorescent dye NanoTemper NT-L020 (in MST)
- Kd (IFNλ3): 1580 nM
- Kd (IFNλ4): 396 nM

B2: IFNλ4 (ligand, human, UniProt K9M1U5-1 22-179, looked up)
chain: AAPRRCLLSHYRSLEPRTLAAAKALRDRYEEEALSWGQRNCSFRPRRDPPRPSSCARLRHVARGIADAQAVLSGLHRSELLPGAGPILELLAAAGRDVAACLELARPGSSRKVPGAQKRRHKPRRADSPRCRKASVVFNLLRLLTWELRLAAHSGPCL
notes: codon-optimised gene; also called interferon lambda 4; source: insect Hi5 cells (baculovirus), secreted as sfGFP-10RB-IFNλ4, cleaved with 3C protease, purified (S75 Superdex)
- pSTAT1 signaling in Hap1 cells, EC50 relative to IFNλ3 (IFNλR1 [1]): 20 fold
- Kd (IFNλR1 [2]): 191 nM
